According to patent publication US20250383346A1:

Biological target: Her2 extracellular domain antigen (ACRO Biosystems) (UniProt P04626)
Experiment: SPR (Carterra LSA), Fab captured from lysate on Fab Kappa capture reagent, Her2 ECD in solution

five standards of trastuzumab Fab
Kd: 0.1 µM
